Data taken from the supplement of paper PMC12042874.
± gives the uncertainty stated by the source.

Assay: amyloid nucleation score (Sup35N fusion, yeast selection) (log enrichment); library NNK3; higher = more nucleation; inactive = no reads after selection
Method in brief: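 Libraries of peptides of 20 random codons fused to Sup35N were expressed in psi-negative yeast and induced 24 hours with 100 μM copper sulfate. Selection was 7 days at 30°C on medium lacking adenine and uracil, and plasmid inserts were Illumina-sequenced before and after selection. Nucleation score is the DiMSum log enrichment of output over input reads, centred on the mode score of non-aggregating sequences, and sequences with under 100 input reads were left out.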

Substance | amyloid nucleation score
VSACLNSGGQHSQRHANMAV | inactive
MYLNNFAWRVTVWNIFVHAL | 0.512 ± 0.16
IMYPIRSSGLEPLNMCGYQA | inactive
REYPYDMYSHLSLFDARHPG | inactive
GFGGFGRVDNSLCIKAPCCV | 0.127 ± 0.29
GVGNWKP | inactive
PWRLIAALACVYTWPLGLRG | inactive
TVPVVREVLRLRVLRIFGVG | inactive
YRVRLCNGSCAQVWCLIRPP | inactive
WIMISKSSMPMTPDAVQAMG | inactive
WKRNI | 0.172 ± 0.71
VIQIYIMRCLYDYYI | 2.8 ± 0.063
VGGPNCIQAFS | inactive
YIFEPV | 0.318 ± 0.77
KICVPSCSCTIFLDLFRY | 2.56 ± 0.08
SWVCCF | inactive
LWRIILWPFVTWSDMMFFQF | -0.076 ± 0.98
HLSTRLARFPLL | inactive
NKWQRNSSNKFTCAQVPFFA | inactive
QGYLRKYPVTGICVIYECDG | inactive
FLIWGKQPWTRKLLGTIVPV | inactive
DYLVFFRPLFNSIDSHWIRS | inactive

Substance | amyloid nucleation score
EVSWD | inactive
LESFWFMTGFF | inactive
TVDMSKPGYIWFSSDRSRYW | inactive
LLWLKL | inactive
RLSGKTPCAK | inactive
CVADHLSCISTRGNCCYMSG | 0.473 ± 0.26
ILCQIDAKDPKPLMTRGLRL | inactive
LCTSADYWSHKNRGRAYSRR | inactive
FMTFPRASADRDFFSRVLHL | inactive
CNKGSNTYVVDYAVGNGH | inactive
TSESAIAVRWSVFSPWPLGF | 0.643 ± 0.15
CELAKLVRNDSFRKDNQGYS | inactive
LDGTGCDGPLARKNCGRNAV | inactive
HAEPIYFYIVRTLKDG | inactive
DVQCGVIMRGLDKYFDLNSA | inactive
CFLSGWTLTVSVLLVDYRKL | inactive
TFFIIIGYVLASGGALGLCR | inactive
ISCTIVLRIVNYNAILVHTY | inactive
YKYRSLYFSRYIVLYVVGVL | inactive
VIITSSTVLMFRFLEYRESQ | inactive
ALTLMCFSVLGFYYVVMYCF | inactive
CGRLHDVG | inactive

Substance | amyloid nucleation score
TIESNCVDDLSIGGAGPNLR | inactive
ARMLSVYSSESQCVTPGWCC | inactive
STVNVCYVSMGNWERLTDVR | 0.446 ± 0.26
WRFYGYI | inactive
KPCHASVET | inactive
CSVFPQVRLCPRSSANQELD | inactive
LLRSYFVVAC | inactive
RVLGKRGGRKH | inactive
ILTISNTAKKSDW | inactive
ADSMTTGLVHGWCYFCMWFN | 2.16 ± 0.065
IINFIVCMMSVQNMCCALFG | 1.39 ± 0.1
FVRANYIWWNSWYLECYIGR | inactive
LILYSLGNNTHEMIYLWSNR | inactive
VYLDFKGWFVMLSINLNQFY | inactive
AVLVDSWRWERFYFMTTIKT | inactive
QANFYPN | inactive
RQNVWTLVPLVKFRLSNTQT | inactive
RRLSSHLFMLWYMVR | inactive
TTMWFLWEVSGYCHKCN | inactive
TVRKSRSRSTQDEAFNPGTH | 0.111 ± 0.63
CALSHYGKFDYYPSFVSFKQ | inactive
